Test results taken from US20090011997A1 (THERATECHNOLOGIES, published 2009).
Bridge positions count the residues as written; N and C are the ends. Square brackets hold non-standard residues; d marks the D form. Ends that are not written are not given here.

How the values were obtained:
ANP receptor (on ANP …) = target: ANP receptor (on ANP receptor-expressing LLC-PK1 cells); experiment: cell-based or functional assay
[1] = target: MCR1 receptor (on MCR1 receptor-expressing B16-F1 cells) (UniProt Q01727 1-315); experiment: cell-based or functional assay
Chain of MCR1 receptor (on MCR1 receptor-expressing B16-F1 cells) (Q01727 whole entry): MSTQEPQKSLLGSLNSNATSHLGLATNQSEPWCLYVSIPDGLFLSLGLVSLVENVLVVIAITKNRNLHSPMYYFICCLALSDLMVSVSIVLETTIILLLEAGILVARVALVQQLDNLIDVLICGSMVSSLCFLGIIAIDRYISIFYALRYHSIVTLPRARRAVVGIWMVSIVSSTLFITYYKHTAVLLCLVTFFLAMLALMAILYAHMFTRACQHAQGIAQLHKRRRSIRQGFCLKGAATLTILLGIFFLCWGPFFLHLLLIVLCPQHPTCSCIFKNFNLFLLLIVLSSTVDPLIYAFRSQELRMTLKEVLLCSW

EC50 on the production of cGMP (LLC-PK1 cells) (ANP receptor (on ANP …)) [nM]	EC50 on the production of cAMP (BC16-F1 cells) [1] [nM]	Binder
52.1	11.5	Ac-H[dF]RWGRRSSCFGGRMDRIGAQSGLGCNSFRY-NH2 (disulfide 10-26; SMILES CC[C@H](C)[C@@H]1NC(=O)[C@H](CCCNC(=N)N)NC(=O)[C@H](CC(=O)O)NC(=O)[C@H](CCSC)NC(=O)[C@H](CCCNC(=N)N)NC(=O)CNC(=O)CNC(=O)[C@H](Cc2ccccc2)NC(=O)[C@@H](NC(=O)[C@H](CO)NC(=O)[C@H](CO)NC(=O)[C@H](CCCNC(=N)N)NC(=O)[C@H](CCCNC(=N)N)NC(=O)CNC(=O)[C@H](Cc2c[nH]c3ccccc23)NC(=O)[C@H](CCCNC(=N)N)NC(=O)[C@@H](Cc2ccccc2)NC(=O)[C@H](Cc2c[nH]cn2)NC(C)=O)CSSC[C@@H](C(=O)N[C@@H](CC(N)=O)C(=O)N[C@@H](CO)C(=O)N[C@@H](Cc2ccccc2)C(=O)N[C@@H](CCCNC(=N)N)C(=O)N[C@@H](Cc2ccc(O)cc2)C(N)=O)NC(=O)CNC(=O)[C@H](CC(C)C)NC(=O)CNC(=O)[C@H](CO)NC(=O)[C@H](CCC(N)=O)NC(=O)[C@H](C)NC(=O)CNC1=O) [bifunctional hormone of SEQ ID NO: 39]
33.1	49.1	MEHFRWGRRSSCFGGRMDRIGAQSGLGCNSFRY-NH2 (disulfide 12-28; N-terminus assumed; SMILES CC[C@H](C)[C@@H]1NC(=O)[C@H](CCCNC(=N)N)NC(=O)[C@H](CC(=O)O)NC(=O)[C@H](CCSC)NC(=O)[C@H](CCCNC(=N)N)NC(=O)CNC(=O)CNC(=O)[C@H](Cc2ccccc2)NC(=O)[C@@H](NC(=O)[C@H](CO)NC(=O)[C@H](CO)NC(=O)[C@H](CCCNC(=N)N)NC(=O)[C@H](CCCNC(=N)N)NC(=O)CNC(=O)[C@H](Cc2c[nH]c3ccccc23)NC(=O)[C@H](CCCNC(=N)N)NC(=O)[C@H](Cc2ccccc2)NC(=O)[C@H](Cc2c[nH]cn2)NC(=O)[C@H](CCC(=O)O)NC(=O)[C@@H](N)CCSC)CSSC[C@@H](C(=O)N[C@@H](CC(N)=O)C(=O)N[C@@H](CO)C(=O)N[C@@H](Cc2ccccc2)C(=O)N[C@@H](CCCNC(=N)N)C(=O)N[C@@H](Cc2ccc(O)cc2)C(N)=O)NC(=O)CNC(=O)[C@H](CC(C)C)NC(=O)CNC(=O)[C@H](CO)NC(=O)[C@H](CCC(N)=O)NC(=O)[C@H](C)NC(=O)CNC1=O) [bifunctional hormone of SEQ ID NO: 36]
6.9	259	Ac-HFRWGRRSSCFGGRMDRIGAQSGLGCNSFRY-NH2 (disulfide 10-26; SMILES CC[C@H](C)[C@@H]1NC(=O)[C@H](CCCNC(=N)N)NC(=O)[C@H](CC(=O)O)NC(=O)[C@H](CCSC)NC(=O)[C@H](CCCNC(=N)N)NC(=O)CNC(=O)CNC(=O)[C@H](Cc2ccccc2)NC(=O)[C@@H](NC(=O)[C@H](CO)NC(=O)[C@H](CO)NC(=O)[C@H](CCCNC(=N)N)NC(=O)[C@H](CCCNC(=N)N)NC(=O)CNC(=O)[C@H](Cc2c[nH]c3ccccc23)NC(=O)[C@H](CCCNC(=N)N)NC(=O)[C@H](Cc2ccccc2)NC(=O)[C@H](Cc2c[nH]cn2)NC(C)=O)CSSC[C@@H](C(=O)N[C@@H](CC(N)=O)C(=O)N[C@@H](CO)C(=O)N[C@@H](Cc2ccccc2)C(=O)N[C@@H](CCCNC(=N)N)C(=O)N[C@@H](Cc2ccc(O)cc2)C(N)=O)NC(=O)CNC(=O)[C@H](CC(C)C)NC(=O)CNC(=O)[C@H](CO)NC(=O)[C@H](CCC(N)=O)NC(=O)[C@H](C)NC(=O)CNC1=O) [bifunctional hormone of SEQ ID NO: 38]
7000	9.8	SLRRSSCFGGRMDRIGAQSGLGCNSFRYHXRW (disulfide bridge between C residues at positions 7 and 23; D-Phe (f) at position 30; C-terminal amidation (NH2)) [bifunctional hormone of SEQ ID NO: 40]
